The target of experiment [1] is T1, Human NOTUM R144A/R145A (human, UniProt Q6P988 20-496).
T1 construct: Alanine mutant, expressed and secreted after transient transfection
T1 sequence: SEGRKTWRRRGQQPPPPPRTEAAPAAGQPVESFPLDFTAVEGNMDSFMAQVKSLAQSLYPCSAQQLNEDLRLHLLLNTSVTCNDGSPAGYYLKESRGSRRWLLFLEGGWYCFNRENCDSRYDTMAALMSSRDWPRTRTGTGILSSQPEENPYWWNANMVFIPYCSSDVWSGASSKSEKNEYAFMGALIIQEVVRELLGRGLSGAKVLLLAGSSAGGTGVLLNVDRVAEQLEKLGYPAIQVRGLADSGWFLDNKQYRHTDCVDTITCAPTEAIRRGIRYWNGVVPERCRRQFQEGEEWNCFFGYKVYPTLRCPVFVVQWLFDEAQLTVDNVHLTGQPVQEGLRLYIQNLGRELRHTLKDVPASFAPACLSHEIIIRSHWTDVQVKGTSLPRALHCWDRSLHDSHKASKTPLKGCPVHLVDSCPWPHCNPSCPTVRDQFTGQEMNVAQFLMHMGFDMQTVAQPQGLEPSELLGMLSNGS
The experiment is described as follows: ELISA. Background: ELISA stands for enzyme-linked immunosorbent assay.

The target of experiment [2] is T2, Guinea pig NOTUM (guinea pig, UniProt Q6P988 21-496 (human entry)).
T2 construct: Expressed by transient transfection
T2 chain: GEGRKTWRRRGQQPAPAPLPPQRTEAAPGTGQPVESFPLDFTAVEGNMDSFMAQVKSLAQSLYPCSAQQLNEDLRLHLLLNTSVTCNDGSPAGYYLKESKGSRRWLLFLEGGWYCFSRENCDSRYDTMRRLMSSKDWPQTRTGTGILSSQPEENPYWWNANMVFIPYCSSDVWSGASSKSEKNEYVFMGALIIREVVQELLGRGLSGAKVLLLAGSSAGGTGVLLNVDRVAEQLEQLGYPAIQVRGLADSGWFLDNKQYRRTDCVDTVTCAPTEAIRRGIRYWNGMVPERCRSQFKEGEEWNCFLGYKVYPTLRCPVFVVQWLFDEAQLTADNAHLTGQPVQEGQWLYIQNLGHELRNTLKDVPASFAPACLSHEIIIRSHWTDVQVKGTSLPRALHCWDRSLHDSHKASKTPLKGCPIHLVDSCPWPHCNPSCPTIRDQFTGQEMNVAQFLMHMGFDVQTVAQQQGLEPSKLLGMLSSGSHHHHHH
The experiment is described as follows: ELISA.

Experiment [3] addresses T3, Human NOTUM D141S (human, UniProt Q6P988 20-496).
T3 construct: Point mutant made by transient transfection
T3 sequence: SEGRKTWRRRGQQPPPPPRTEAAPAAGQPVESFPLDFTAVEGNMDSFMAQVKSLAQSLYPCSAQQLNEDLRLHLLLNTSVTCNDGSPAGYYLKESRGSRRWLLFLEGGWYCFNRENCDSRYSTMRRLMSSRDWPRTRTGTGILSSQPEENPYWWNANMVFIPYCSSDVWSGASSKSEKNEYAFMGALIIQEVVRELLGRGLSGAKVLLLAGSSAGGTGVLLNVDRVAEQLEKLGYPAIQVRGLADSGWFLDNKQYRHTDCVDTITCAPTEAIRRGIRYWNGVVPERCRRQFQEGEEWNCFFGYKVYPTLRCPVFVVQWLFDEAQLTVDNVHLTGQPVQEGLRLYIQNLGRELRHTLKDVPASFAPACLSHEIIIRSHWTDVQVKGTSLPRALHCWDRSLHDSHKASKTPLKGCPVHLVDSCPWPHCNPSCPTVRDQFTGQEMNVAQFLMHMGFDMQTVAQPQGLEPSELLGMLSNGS
In words: ELISA.

In experiment [4] the target is T4, Human NOTUM (human, UniProt Q6P988 20-496).
T4 sequence: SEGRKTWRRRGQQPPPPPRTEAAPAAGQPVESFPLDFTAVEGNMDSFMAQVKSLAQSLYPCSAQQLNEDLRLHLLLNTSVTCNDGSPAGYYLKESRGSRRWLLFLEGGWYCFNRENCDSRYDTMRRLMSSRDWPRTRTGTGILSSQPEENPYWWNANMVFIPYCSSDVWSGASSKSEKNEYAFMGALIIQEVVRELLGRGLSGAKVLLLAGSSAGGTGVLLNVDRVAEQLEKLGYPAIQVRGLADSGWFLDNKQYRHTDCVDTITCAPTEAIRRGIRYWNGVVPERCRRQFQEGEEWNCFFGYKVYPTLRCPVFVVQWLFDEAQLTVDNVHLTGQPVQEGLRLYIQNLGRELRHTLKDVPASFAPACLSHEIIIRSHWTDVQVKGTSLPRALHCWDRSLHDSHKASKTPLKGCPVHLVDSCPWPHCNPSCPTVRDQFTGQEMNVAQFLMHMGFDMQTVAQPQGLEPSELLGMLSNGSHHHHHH
In words: cell-based or functional assay.

The target of experiment [5] is T5, Mouse NOTUM (mouse, UniProt Q8R116 20-503).
T5 construct: also called recombinant mouse NOTUM
T5 sequence: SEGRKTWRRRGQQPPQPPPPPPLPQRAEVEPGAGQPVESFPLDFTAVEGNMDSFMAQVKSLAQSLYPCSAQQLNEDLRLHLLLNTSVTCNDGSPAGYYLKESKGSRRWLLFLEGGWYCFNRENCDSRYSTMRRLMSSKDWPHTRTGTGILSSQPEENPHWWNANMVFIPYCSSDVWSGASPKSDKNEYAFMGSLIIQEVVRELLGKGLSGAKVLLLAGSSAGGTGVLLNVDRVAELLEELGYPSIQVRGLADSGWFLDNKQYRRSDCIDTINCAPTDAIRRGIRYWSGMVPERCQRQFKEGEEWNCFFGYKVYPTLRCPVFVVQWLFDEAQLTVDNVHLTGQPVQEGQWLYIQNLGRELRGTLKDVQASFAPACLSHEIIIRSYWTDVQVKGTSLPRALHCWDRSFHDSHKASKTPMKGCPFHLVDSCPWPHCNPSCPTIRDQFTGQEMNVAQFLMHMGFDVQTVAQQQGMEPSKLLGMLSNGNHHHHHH
The experiment is described as follows: ELISA (column 'Mouse NOTUM binding').

B1: MAb 1.802 (antibody, V domains shown)
VH: EVQLVESGGGLVKPGGSLKLSCAASGFTFSDYGMHWFRQAPEKGLEWVAYISSGSRTVYYADTVKGRFTISRDNAKNTLSLQMTSLRSEDTAMYYCARKHYNGGYFDVWGTGTTVTVSS
VL: DIVLTQSPASLAVSLGQRATISCRASKIVSTSGYSYMHWYQQKPGQPPKLLIYLASNLESGVPARFSGSGSGTDFTLNIHPVEEEDAATYYCQHSRELPPTFGSGTKLEIKR
notes: Mouse monoclonal antibody from Campaign 1 (raised against human NOTUM), IgG1
Take B1: the binding result in experiment [1] is “no binding”; in experiment [2], “binds”; in experiment [3], “no binding”; in experiment [5], “no binding”. The “OPTS IC50 (nM; human NOTUM)” value in experiment [4] came to 6.44 nM. The “Wnt signaling IC50 (nM; human NOTUM)” value in experiment [4] stood at 5.71 nM.

B2: MAb 1.815 (antibody, IgG1, V domains shown)
VH: DVQLLESGGGLVQPGGSRKLSCAASGFTFSDFGMHWVRQAPEKGLEWVAYSSSGGTTVYYADTVKGRLTLSRDNSKNTLFLEMTSLRSEDTAMYYCARASYDGGYFDCWGQGTSLTVSS
VL: DIVLTQSPASLAVSLGQRATISCRASKSVSTSGYSYIHWYQQKPGQPPKLLIYLASDLESGVPARFSGSGSGAAFTLNIHPVEEEDAATYYCHHSRELPFTFGSGTKLEIKR
notes: Mouse monoclonal antibody from Campaign 1, IgG1
For B2, the binding result is given as “no binding” in experiment [1], “binds” in experiment [2], “no binding” in experiment [3] and “no binding” in experiment [5]. Moreover, the “OPTS IC50 (nM; human NOTUM)” value in experiment [4] worked out at 7.62 nM. In addition, in experiment [4], the “Wnt signaling IC50 (nM; human NOTUM)” value worked out at 6.88 nM.

B3: MAb 1.846 (antibody, IgG2b, V domains shown)
VH: EVQLVESGGDLVKPGGSLKLSCAASGFTFSDYGMHWLRQAPEKGLEWVAYISSGSTTLSYANTMKGRFTISRDNAKKTLSLQMTSLRSEDTAIYYCARKNYNGGYFDVWGTGTTVTVSS
VL: DIVLTQSPASLVVSLGQRATISCRASKSVSESGYSYMHWYQQKPGQPPKLLIYLASNLESGVPARFSGSGSGTDFTLNIHPVEEGDATTYYCQHSRVLPPTFGSGTKLEIKR
notes: Mouse monoclonal antibody from Campaign 1, IgG2b
On to B3, for which the binding result in experiment [1] is reported as “no binding”; in experiment [2] it was “binds”; in experiment [3] it was “no binding”; in experiment [5], “no binding”. Further, the “OPTS IC50 (nM; human NOTUM)” value in experiment [4] amounted to 10.1 nM. Besides, in experiment [4], the “Wnt signaling IC50 (nM; human NOTUM)” value came to 1.7 nM.
